Test [1] concerns the target HLA-A*02:12. The experiment in a line: IEDB peptide-MHC binding, purified MHC/direct/fluorescence; filed as Kd, often an IC50 or EC50 that approximates it; ≥ and ≤ were set here for values at or beyond the usual limits of such assays.
Test [2] concerns the target HLA-A*02:19. The test is described as above.
The target in test [3] is HLA-B*15:17. The experiment in a line: IEDB peptide-MHC binding, purified MHC/competitive/fluorescence; filed as Kd, often an IC50 or EC50 that approximates it; ≥ and ≤ were set here for values at or beyond the usual limits of such assays. The note with it: source organism: Neembucu hantavirus.
Test [4] concerns the target HLA-A*03:01. Described as above. The note with it: source organism: Neembucu hantavirus.
Test [5] has as its target HLA-A*69:01. Described as above. The note with it: source organism: Neembucu hantavirus.
Test [6] has as its target HLA-B*18:01. The test is described as above. The following applies: source organism: Neembucu hantavirus.
Test [7] concerns the target HLA-B*39:01. The test is described as above. The note with it: source organism: Neembucu hantavirus.
Test [8] addresses HLA-A*26:01. The test is described as above. The following applies: source organism: Neembucu hantavirus.
The target in test [9] is HLA-B*15:01. The test is described as above. The note with it: source organism: Neembucu hantavirus.
In test [10] the target is HLA-B*27:03. The description is as above. The following applies: source organism: Neembucu hantavirus.
In test [11] the target is HLA-B*57:01. The description is as above. The note with it: source organism: Neembucu hantavirus.
The target of test [12] is HLA-B*46:01. The description is as above. The following applies: source organism: Neembucu hantavirus.
Test [13] deals with HLA-B*51:01. The test is described as above. The following applies: source organism: Neembucu hantavirus.
Test [14] concerns the target HLA-A*03:01. The experiment in a line: IEDB peptide-MHC binding, purified MHC/direct/fluorescence; filed as Kd, often an IC50 or EC50 that approximates it; ≥ and ≤ were set here for values at or beyond the usual limits of such assays.
Test [15] deals with HLA-A*11:01. Described as above.
The target in test [16] is HLA-A*31:01. The experiment in a line: IEDB peptide-MHC binding, purified MHC/competitive/fluorescence; filed as Kd, often an IC50 or EC50 that approximates it; ≥ and ≤ were set here for values at or beyond the usual limits of such assays.
Test [17] addresses HLA-B*15:03. The experiment in a line: IEDB peptide-MHC binding, purified MHC/competitive/radioactivity; filed as Kd, often an IC50 or EC50 that approximates it; ≥ and ≤ were set here for values at or beyond the usual limits of such assays.
Test [18] concerns the target HLA-B*15:01. As to the kind of experiment: IEDB peptide-MHC binding, purified MHC/competitive/fluorescence; ≥ and ≤ were set here for values at or beyond the usual limits of such assays.
Test [19] concerns the target HLA-A*24:02. Described as above.
The target in test [20] is HLA-A*02:01. The test is described as above.
The target of test [21] is HLA-A*11:01. The description is as above. The note with it: source organism: Zaire ebolavirus.
For test [22], the target named is HLA-A*32:01. The experiment in a line: IEDB peptide-MHC binding, purified MHC/competitive/radioactivity; filed as Kd, often an IC50 or EC50 that approximates it; ≥ and ≤ were set here for values at or beyond the usual limits of such assays.
The target of test [23] is HLA-B*15:01. Described as above.
Test [24] addresses HLA-B*08:01. The description is as above.
The target of test [25] is HLA-A*30:01. Described as above.
Test [26] concerns the target HLA-A*02:03. The description is as above. The note with it: source organism: Dengue virus 1 Brazil/97-11/1997.
Test [27] addresses HLA-A*02:17. The description is as above. The note with it: source organism: Dengue virus 1 Singapore/S275/1990.
Test [28] deals with HLA-A*02:01. Described as above. The following applies: source organism: Dengue virus 1 Singapore/S275/1990.
For test [29], the target named is HLA-A*68:02. Described as above. The following applies: source organism: Dengue virus 1 Brazil/97-11/1997.
Test [30] concerns the target HLA-A*69:01. As to the kind of experiment: IEDB peptide-MHC binding, purified MHC/direct/fluorescence; filed as Kd, often an IC50 or EC50 that approximates it; ≥ and ≤ were set here for values at or beyond the usual limits of such assays. The following applies: source organism: Amur virus.
Test [31] deals with HLA-A*02:11. Described as above. The following applies: source organism: Sapporo rat virus.
Test [32] concerns the target HLA-A*02:01. The test is described as above. The following applies: source organism: Amur virus.
[33] abbreviates: source organism: Orthohantavirus negraense.
[34] abbreviates: source organism: Escherichia coli O157:H7.
Setting [35] is: source organism: Mammarenavirus lassaense.
Where [36] appears, read: source organism: Vaccinia virus WR.
The mark [37] stands for this setting: source organism: Zaire ebolavirus.
The mark [38] stands for this setting: source organism: West Nile virus.
The mark [39] stands for this setting: source organism: Vaccinia virus.
[40] abbreviates: source organism: Vaccinia virus Copenhagen.
Setting [41] is: source organism: Sapporo rat virus.
[42] abbreviates: source organism: Sudan ebolavirus.
The mark [43] stands for this setting: source organism: Campylobacter jejuni.
The mark [44] stands for this setting: source organism: Influenza A virus (A/swine/Korea/S190/2004(H9N2)).

Broadly, the Kd is the constant that tells how readily two partners part at equilibrium. By IC50 is commonly meant the concentration that inhibits the measured activity by half.

Some results are limits rather than exact numbers.

Consider ILYMLSWGK, for which the equilibrium dissociation constant (Kd) in test [1] (setting [33]) is at least 20 µM; in [2] (setting [33]), at least 20 µM; in [3] it was at least 20 µM; in test [4] it was 0.155 µM; in test [5], at least 20 µM; in test [6], at least 20 µM. Further, the equilibrium dissociation constant (Kd) in test [7], in [8], in test [9], in test [10], in [11] and in test [12] was at least 20 µM each time. The sequence also registered a Kd in [13] of at least 20 µM.
Regarding SVAPGTDFR, the results for the Kd in [14] (setting [34]), in test [15] (setting [34]) and in [16] (source organism: Escherichia coli O157:H7 str. EDL933) were 0.506 µM, 0.0018 µM and 0.007 µM, respectively.
Consider KLIDIALSK, for which the figures for the equilibrium dissociation constant (Kd) in test [14] (setting [35]), in test [15] (setting [35]) and in test [16] (source organism: Lassa virus Josiah) were 0.639 µM, 0.0012 µM and 0.142 µM, respectively.
As for FKAMWKYPF, the Kd in test [17] (setting [36]) worked out at 0.000109 µM.
For RFNVPGTWR, the Kd in [14] (setting [34]) is 1.92 µM; in test [15] (setting [34]) it was at least 20 µM; in test [16] (source organism: Escherichia coli K-12), 0.00127 µM.
Take LSFASLFLP: the IC50 in test [18] (setting [37]) was at least 97.8 µM; in [19] (setting [37]) it was 11.1 µM; in test [20] (setting [37]), 2.67 µM; in test [21], at least 179 µM.
Regarding LPTNEFISF, the Kd in test [17] (setting [36]) was 0.0337 µM.
As for GLYKSAPRR, the dissociation constant (Kd) in test [15] (setting [38]) was at least 20 µM; in test [16] (setting [38]), 0.197 µM.
Sequence KCIKKGVEY registered a half-inhibitory concentration (IC50) in test [18] (setting [39]) of at least 91.2 µM.
In the case of IKYACKQIL, the Kd in test [22] (setting [36]) stood at 10.7 µM; in test [17] (setting [36]), 0.252 µM; in test [23] (setting [36]) it was 6.87 µM; in test [24] (setting [36]) it was 8.67 µM; in [25] (setting [36]) it was 2.11 µM.
Regarding KTFVELMRR, the Kd in [15] (source organism: Dengue virus 1 Singapore/S275/1990) was 0.0162 µM; in test [16] (source organism: dengue virus type 1) it was at most 0.001 µM.
Turning to IHFMREYWF, the Kd is 12.4 µM in test [22] (setting [40]); 0.222 µM in test [17] (setting [40]); 6.91 µM in test [23] (setting [40]); 8.05 µM in test [24] (setting [40]); 0.0449 µM in [25] (setting [40]).
On to ATREGKHGK, for which the dissociation constant (Kd) in test [14] (setting [34]) amounted to 0.301 µM; in [15] (setting [34]), 0.254 µM; in [16] (source organism: Shewanella baltica OS155), 0.0813 µM.
As to KEFLRYLLF, the figures for the IC50 in test [18] (setting [39]) and in test [19] (setting [39]) were at least 277 µM and 0.381 µM, respectively.
Consider IQTLNGKHF, for which, in test [17] (setting [36]), the Kd is 0.0114 µM.
As for AVAKYFSPL, the dissociation constant Kd stood at 0.283 µM in test [22] (setting [36]); 0.235 µM in test [17] (setting [36]); 0.016 µM in [23] (setting [36]); 0.189 µM in [24] (setting [36]); 8.98 µM in test [25] (setting [36]).
For SMNTIKQSF, the values for the dissociation constant Kd in [22] (setting [36]), in test [17] (setting [36]) and in test [24] (setting [36]) were 0.293 µM, 0.0165 µM and 0.449 µM, respectively.
With TLTAAVLMLV, the Kd stood at 0.00345 µM in test [26], 1.06 µM in test [27], 0.00397 µM in test [28] and 0.00158 µM in [29].
With SLTECPTFL, the Kd in test [30] was at least 20 µM; in test [31], at most 0.001 µM; in [1] (setting [41]), 0.005 µM; in [2] (setting [41]), 0.041 µM; in test [32] it was at most 0.001 µM.
As to QMTSTFIML, the figures for the IC50 in test [18] (setting [40]) and in [19] (setting [40]) were 30.2 µM and 0.224 µM, respectively.
Regarding HVKSTLNNA, the Kd in test [22] (setting [36]) was at least 41.7 µM; in test [17] (setting [36]) it was 0.376 µM; in [23] (setting [36]) it was 0.366 µM; in test [24] (setting [36]), 1.53 µM; in [25] (setting [36]), 0.00115 µM.
Turning to KLTSTETSF, in [17] (setting [36]), the dissociation constant Kd stood at 0.0254 µM.
For IQRTYSSSI, the Kd in test [17] (setting [36]) was found to be 0.00083 µM.
On to KSNIEETKF, for which the IC50 in test [18] (setting [39]) is at least 481 µM.
Consider ITLTNVVNI, for which the equilibrium dissociation constant (Kd) in test [22] (setting [36]) amounted to 0.0771 µM; in [17] (setting [36]), 0.0218 µM; in [23] (setting [36]), 0.0116 µM; in [24] (setting [36]), 4.49 µM; in test [25] (setting [36]), 0.0346 µM.
Consider FTRCAVIPF, for which the equilibrium dissociation constant (Kd) in test [17] (setting [36]) turned out to be 0.0054 µM.
On to GTSGTEKEF, for which the half-inhibitory concentration (IC50) was at least 401 µM in test [18] (setting [39]) and at least 205 µM in test [19] (setting [39]).
For the sequence ILAKPKETF, the half-inhibitory concentration (IC50) in test [18] (setting [42]) is at least 102 µM; in [19] (setting [42]), 0.5 µM.
On to IMLEYPHFK, for which the dissociation constant Kd in test [14] (setting [43]) was 0.0229 µM; in test [15] (setting [43]) it was 0.0018 µM; in [16] (source organism: Campylobacter jejuni subsp. jejuni NCTC 11168 = ATCC 700819), 0.0136 µM.
On to RQNRSQYLF, for which the dissociation constant Kd in test [17] (setting [40]) was found to be 0.000137 µM.
With TTHSWIPKR, the figures for the Kd in test [14] (setting [44]), in test [15] (setting [44]) and in test [16] (source organism: Influenza A virus (A/Fort Monmouth/1/1947-mouse adapted(H1N1))) were 2.83 µM, 0.132 µM and 0.0023 µM, respectively.
Consider VGLITCKAF, for which the IC50 in [18] (setting [36]) is 57.3 µM; in test [19] (setting [36]), 7.71 µM; in test [20] (setting [36]), at least 1310 µM.
